From patent publication US20090312253A1

Assays:
[1] = target: LRP6 expressed on HEK cells transfected with the LRP6 plasmid; test: Dkk1-AP conditioned medium on LRP6-transfected HEK cells, AP activity in cell lysate, wild type = 100%
[2] = target: LRP6 expressed on HEK cells transfected with the LRP6 plasmid; test: binding of Dkk1 to LRP6, assay not described for this mutant (data not shown)

Binder	reduction of binding to LRP6 against wild-type Dkk1 [1]	reduction of binding to LRP6 against wild-type Dkk1 [2]
mouse Dkk1-AP mutant H210E (ligand, UniProt O54908 32-272, looked up, not shown: large carriers) TLNSVLINSNAIKNLPPPLGGAGGQPGSAVSVAPGVLYEGGNKYQTLDNYQPYPCAEDEECGSDEYCSSPSRGAAGVGGVQICLACRKRRKRCMRHAMCCPGNYCKNGICMPSDHSHFPRGEIEESIIENLGNDHNAAAGDGYPRRTTLTSKIYHTKGQEGSVCLRSSDCAAGLCCAREFWSKICKPVLKEGQVCTKHKRKGSHGLEIFQRCYCGEGLACRIQKDHHQASNSSRLHTCQRH	> 50%	
mouse Dkk1-AP mutant H267E (ligand, UniProt O54908 32-272, looked up, not shown: large carriers) TLNSVLINSNAIKNLPPPLGGAGGQPGSAVSVAPGVLYEGGNKYQTLDNYQPYPCAEDEECGSDEYCSSPSRGAAGVGGVQICLACRKRRKRCMRHAMCCPGNYCKNGICMPSDHSHFPRGEIEESIIENLGNDHNAAAGDGYPRRTTLTSKIYHTKGQEGSVCLRSSDCAAGLCCARHFWSKICKPVLKEGQVCTKHKRKGSHGLEIFQRCYCGEGLACRIQKDHHQASNSSRLETCQRH	43%	
Dkk1 mutant L266A (ligand, mouse, UniProt O54908 32-272, looked up, not shown: large carriers) TLNSVLINSNAIKNLPPPLGGAGGQPGSAVSVAPGVLYEGGNKYQTLDNYQPYPCAEDEECGSDEYCSSPSRGAAGVGGVQICLACRKRRKRCMRHAMCCPGNYCKNGICMPSDHSHFPRGEIEESIIENLGNDHNAAAGDGYPRRTTLTSKIYHTKGQEGSVCLRSSDCAAGLCCARHFWSKICKPVLKEGQVCTKHKRKGSHGLEIFQRCYCGEGLACRIQKDHHQASNSSRAHTCQRH		40%
mouse Dkk1-AP mutant R242E (ligand, UniProt O54908 32-272, looked up, not shown: large carriers) TLNSVLINSNAIKNLPPPLGGAGGQPGSAVSVAPGVLYEGGNKYQTLDNYQPYPCAEDEECGSDEYCSSPSRGAAGVGGVQICLACRKRRKRCMRHAMCCPGNYCKNGICMPSDHSHFPRGEIEESIIENLGNDHNAAAGDGYPRRTTLTSKIYHTKGQEGSVCLRSSDCAAGLCCARHFWSKICKPVLKEGQVCTKHKRKGSHGLEIFQECYCGEGLACRIQKDHHQASNSSRLHTCQRH	> 50%	
mouse Dkk1-AP mutant K217E (ligand, UniProt O54908 32-272, looked up, not shown: large carriers) TLNSVLINSNAIKNLPPPLGGAGGQPGSAVSVAPGVLYEGGNKYQTLDNYQPYPCAEDEECGSDEYCSSPSRGAAGVGGVQICLACRKRRKRCMRHAMCCPGNYCKNGICMPSDHSHFPRGEIEESIIENLGNDHNAAAGDGYPRRTTLTSKIYHTKGQEGSVCLRSSDCAAGLCCARHFWSKICEPVLKEGQVCTKHKRKGSHGLEIFQRCYCGEGLACRIQKDHHQASNSSRLHTCQRH	> 50%	
